Source: paper PMC8863369, “Heparan sulfate-dependent RAGE oligomerization is indispensable for pathophysiological functions of RAGE” (eLife, 2022)
Each block holds one molecule with its values, some of them ahead of it.

Tests used:
[1] = target: mouse RAGE VC1 domain triple mutant R216A-R217H-R218A (mouse); experiment: ELISA; methods: 200 ng mRAGE-WT or mRAGE-AHA coated on the plate, 1% BSA block, biotinylated HMGB1 50-1000 ng/ml for 2 hr, streptavidin-HRP; the legend says HMGB1 was immobilised; apparent Kd
[2] = target: T1, high mobility group Box 1 (HMGB1) (UniProt P63158 1-215, biotin (in the HMGB1 binding ELISA of p-0047; immobilised without a stated label in the ELISA of p-0044)); experiment: as above; conditions: both partners purified
T1 construct: HMGB1; also called biotinylated HMGB1
T1 sequence (looked up): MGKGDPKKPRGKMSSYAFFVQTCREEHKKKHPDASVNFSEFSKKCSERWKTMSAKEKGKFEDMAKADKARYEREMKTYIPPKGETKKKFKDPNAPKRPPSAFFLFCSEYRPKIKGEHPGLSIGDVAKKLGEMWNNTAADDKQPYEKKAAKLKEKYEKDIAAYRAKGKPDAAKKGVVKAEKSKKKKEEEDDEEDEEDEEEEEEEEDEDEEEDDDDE

[3] = target: T2, mouse RAGE VC1 domain triple mutant R216A-R217H-R218A; experiment: gel filtration (Superdex 200); conditions: chain shown with the change; incubated with HS dodecasaccharide (H12); Superdex 200 (10/300 mm) gel filtration column; parent: est. 13; read off a plot
T2 chain: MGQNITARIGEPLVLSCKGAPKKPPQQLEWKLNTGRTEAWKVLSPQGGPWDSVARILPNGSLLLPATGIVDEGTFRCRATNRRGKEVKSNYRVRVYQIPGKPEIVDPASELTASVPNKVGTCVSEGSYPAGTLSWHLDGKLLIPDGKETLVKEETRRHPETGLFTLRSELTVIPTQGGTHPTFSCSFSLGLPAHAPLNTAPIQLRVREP

Kd [1]: 9.9 nM
Molecule: high mobility group Box 1 (HMGB1) (from UniProt P63158 1-215) (ligand)

Kd [2]: 11.7 nM
B1: wild-type mouse RAGE VC1 domain (domain or fragment, UniProt Q62151 23-231, looked up)
chain: GQNITARIGEPLVLSCKGAPKKPPQQLEWKLNTGRTEAWKVLSPQGGPWDSVARILPNGSLLLPATGIVDEGTFRCRATNRRGKEVKSNYRVRVYQIPGKPEIVDPASELTASVPNKVGTCVSEGSYPAGTLSWHLDGKLLIPDGKETLVKEETRRHPETGLFTLRSELTVIPTQGGTHPTFSCSFSLGLPRRRPLNTAPIQLRVREPG
notes: RAGE (receptor for advanced glycation end-products, Ager), mouse, V and C1 immunoglobulin domains; also called WT-mVC1; mVC1-WT; source: E. coli, purified (HiTrap SP cation exchange, SEC on Superdex 200)

other: gel filtration elution volume of main peak in presence of H12 [3]: 14 mL
B2: wild-type mouse RAGE VC1 domain, Q62151 R216A; R217H; R218A (protein)
chain: MGQNITARIGEPLVLSCKGAPKKPPQQLEWKLNTGRTEAWKVLSPQGGPWDSVARILPNGSLLLPATGIVDEGTFRCRATNRRGKEVKSNYRVRVYQIPGKPEIVDPASELTASVPNKVGTCVSEGSYPAGTLSWHLDGKLLIPDGKETLVKEETRRHPETGLFTLRSELTVIPTQGGTHPTFSCSFSLGLPAHAPLNTAPIQLRVREP
